Results on four molecules are retold here after publication PMC9481538, “The interaction between LC8 and LCA5 reveals a novel oligomerization function of LC8 in the ciliary-centrosome system” (Scientific Reports, 2022).

One data set relates to LC8 in hTERT-RPE1 cells. Briefly: immunofluorescence colocalization of LCA5 and LC8. The format is cell-based. As to conditions: for Pearson's correlation coefficient, LCA5 and LC8: Z-stack images, JACoP. The method, then: hTERT-RPE1 cells were seeded on poly-lysine-coated 21 mm coverslips. After 24 h, cells were serum-starved for an additional 72 h. Cells were washed with DPBS (Lonza) two times and once in cytoskeletal buffer (10 mM PIPES, 100 mM NaCl, 3 mM MgCl2, 300 mM Sucrose, 5 mM EGTA, 0.5% Triton-X 100, pH 6.9)[44]. Subsequently, cells were fixed in a cytoskeletal buffer containing 4% PFA for 10 min at 37 °C. Fixed cells were washed with DPBS and permeabilised for an additional 30 min in 0.5% Triton-X 100 in DPBS and incubated for 1 h in a blocking buffer (2% BSA, 0.1% Triton-X 100 in DPBS) at room temperature. Primary and secondary antibodies were diluted in a blocking buffer. The cells were incubated with rabbit anti-lebercilin 1:200 (Proteintech 19,333-1-AP), goat anti-LC8 1:100 (Invitrogen PA5-47,957), mouse anti-acetylated-α-tubulin 1:15,000 (Sigma Aldrich 5335S) overnight at 4 °C. Finally, cells were treated with secondary antibodies (anti-goat-Alexa Fluor 488 1:800, anti-mouse-CY3 1:800, anti-rabbit-Alexa Fluor 647 1:800 Jackson ImmunoResearch) for 1 h at room temperature. Coverslips were mounted using ProLong Diamond antifade mountant with DAPI (Invitrogen) and imaged with an inverted Zeiss LSM 800, the image processing was completed with Fiji ImageJ software. The calculations of the colocalization were performed using the JACoP plugin of ImageJ software. The Pearson’s coefficient and the Manders coefficients were calculated on Z-stack images of primary cilia and centrosomes of hTERT-RPE1 cells using manual thresholds. For the statistical analysis of the colocalization a randomization based Costes method was used.

The target in another data set is T1, LC8 (Homo sapiens, UniProt Q96FJ2).
T1 construct: 6xHis (N); made in house; host or cells: E. coli BL21 (DE3) Rosetta
As to conditions: literature, ref (6)-(10) of supplement, cited from earlier work; for Number of monomeric LC8 in complex / Number of monomeric binding partners in complex: composition of complexes. The text has this: According to the standard model of LC8 interactions, the dimeric interface of LC8 presents two interaction sites for partners which also form dimers, implying a 1:1 stoichiometry. Partners with two adjacent binding motifs, like ANA2, follow a 1:2 stoichiometry by binding two LC8[18]. Intriguingly, we observed a 2:1 LCA5:LC8 stoichiometry for the ΔCQS and the ΔVQT mutants, which means that one LC8 dimer binds four LCA5 chains (Supplementary Table S1). A reasonable interpretation is that the native LCA5 is dimeric and thus a pair of LCA5 dimers bind to one dimeric LC8. In such a situation, one i ... || page 10: Composition of complexes Number of LC8 Number of Ratio of LCA5 LC8 binding monomeric binding monomeric LC8 in monomers to LC8 Gene name sites partners in complex complex monomers SWA (6) 1 2 2 1:1 DYNC1I1 (7) 1 2 2 1:1 WDR34-WDR60 3 1+1 6 1:3 (8) ANA2 (9) 2 2 4 1:2 ASCIZ (10) 11 2 22 1:11 sLCA5-WT 2 4 4 1:1 sLCA5-single 1 4 2 2:1 mutants Supplementary Table S1. Stoichiometries of various LC8 binding partners in complex with LC8. Known LC8 binding partners according to literature data always form dimers upon LC8 binding. The stoichiometry is basically 1:1 in case of one LC8 binding sit ...

The mark [1] stands for this setting: centrosome, late interphase hTERT-RPE1 cells.
The mark [2] stands for this setting: ciliary basal body, ciliated hTERT-RPE1 cells.

T1 sequence (Q96FJ2 whole entry): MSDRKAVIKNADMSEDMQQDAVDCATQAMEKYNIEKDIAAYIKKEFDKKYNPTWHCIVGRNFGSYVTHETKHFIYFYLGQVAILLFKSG

B1: LCA5: 697 amino acid long protein lebercilin, cellular (protein, UniProt Q86VQ0 1-697, looked up)
chain: MGERAGSPGTDQERKAGKHHYSYLSDFETPQSSGRSSLVSSSPASVRRKNPKRQTSDGQVHHQAPRKPSPKGLPNRKGVRVGFRSQSLNREPLRKDTDLVTKRILSARLLKINELQNEVSELQVKLAELLKENKSLKRLQYRQEKALNKFEDAENEISQLIFRHNNEITALKERLRKSQEKERATEKRVKDTESELFRTKFSLQKLKEISEARHLPERDDLAKKLVSAELKLDDTERRIKELSKNLELSTNSFQRQLLAERKRAYEAHDENKVLQKEVQRLYHKLKEKERELDIKNIYSNRLPKSSPNKEKELALRKNAACQSDFADLCTKGVQTMEDFKPEEYPLTPETIMCYENKWEEPGHLTLDLQSQKQDRHGEAGILNPIMEREEKFVTDEELHVVKQEVEKLEDEWEREELDKKQKEKASLLEREEKPEWETGRYQLGMYPIQNMDKLQGEEEERLKREMLLAKLNEIDRELQDSRNLKYPVLPLLPDFESKLHSPERSPKTYRFSESSERLFNGHHLQDISFSTPKGEGQNSGNVRSPASPNEFAFGSYVPSFAKTSERSNPFSQKSSFLDFQRNSMEKLSKDGVDLITRKEKKANLMEQLFGASGSSTISSKSSDPNSVASSKGDIDPLNFLPGNKGSRDQEHDEDEGFFLSEGRSFNPNRHRLKHADDKPAVKAADSVEDEIEEVALR
modifications: full-length
notes: 697 amino acid long protein lebercilin, cellular
With B1, in the data set on LC8 in hTERT-RPE1 cells (setting [1]), the “thresholded Manders LC8 to LCA5 tM2” value is recorded as 0.574; the “thresholded Manders LCA5 to LC8 tM1” value is 0.929; the “Pearson's correlation coefficient, LCA5 and LC8” value was determined as 0.802. Further, in the data set with LC8 in hTERT-RPE1 cells (setting [2]), the “thresholded Manders LC8 to LCA5 tM2” value amounted to 0.718; the “thresholded Manders LCA5 to LC8 tM1” value is listed as 0.671; the “Pearson's correlation coefficient, LCA5 and LC8” value is given as 0.715.

B2: DYNC1I1: known LC8 binding partner, literature (protein, UniProt O14576 2-645, looked up)
Cytoplasmic dynein 1 …: SDKSDLKAELERKKQRLAQIREEKKRKEEERKKKEADMQQKKEPVQDDSDLDRKRRETEALLQSIGISPEPPLVQPLHFLTWDTCYFHYLVPTPMSPSSKSVSTPSEAGSQDSGDLGPLTRTLQWDTDPSVLQLQSDSELGRRLHKLGVSKVTQVDFLPREVVSYSKETQTPLATHQSEEDEEDEEMVESKVGQDSELENQDKKQEVKEAPPRELTEEEKQQILHSEEFLIFFDRTIRVIERALAEDSDIFFDYSGRELEEKDGDVQAGANLSFNRQFYDEHWSKHRVVTCMDWSLQYPELMVASYNNNEDAPHEPDGVALVWNMKFKKTTPEYVFHCQSSVMSVCFARFHPNLVVGGTYSGQIVLWDNRSHRRTPVQRTPLSAAAHTHPVYCVNVVGTQNAHNLITVSTDGKMCSWSLDMLSTPQESMELVYNKSKPVAVTGMAFPTGDVNNFVVGSEEGTVYTACRHGSKAGIGEVFEGHQGPVTGINCHMAVGPIDFSHLFVTSSFDWTVKLWTTKHNKPLYSFEDNADYVYDVMWSPVHPALFACVDGMGRLDLWNLNNDTEVPTASVAIEGASALNRVRWAQAGKEVAVGDSEGRIWVYDVGELAVPHNDEWTRFARTLVEIRANRADSEEEGTVELSA
As to B2, in the data set with LC8, the “Number of monomeric LC8 in complex” value is 2, the “Number of monomeric binding partners in complex” value was 2 and the LC8 binding sites is 1.

B3: ASCIZ: known LC8 binding partner, literature (protein, UniProt O43313 1-823, looked up)
ATM interactor: MAASEAAAAAGSAALAAGARAVPAATTGAAAAASGPWVPPGPRLRGSRPRPAGATQQPAVPAPPAGELIQPSVSELSRAVRTNILCTVRGCGKILPNSPALNMHLVKSHRLQDGIVNPTIRKDLKTGPKFYCCPIEGCPRGPERPFSQFSLVKQHFMKMHAEKKHKCSKCSNSYGTEWDLKRHAEDCGKTFRCTCGCPYASRTALQSHIYRTGHEIPAEHRDPPSKKRKMENCAQNQKLSNKTIESLNNQPIPRPDTQELEASEIKLEPSFEDSCGSNTDKQTLTTPPRYPQKLLLPKPKVALVKLPVMQFSVMPVFVPTADSSAQPVVLGVDQGSATGAVHLMPLSVGTLILGLDSEACSLKESLPLFKIANPIAGEPISTGVQVNFGKSPSNPLQELGNTCQKNSISSINVQTDLSYASQNFIPSAQWATADSSVSSCSQTDLSFDSQVSLPISVHTQTFLPSSKVTSSIAAQTDAFMDTCFQSGGVSRETQTSGIESPTDDHVQMDQAGMCGDIFESVHSSYNVATGNIISNSLVAETVTHSLLPQNEPKTLNQDIEKSAPIINFSAQNSMLPSQNMTDNQTQTIDLLSDLENILSSNLPAQTLDHRSLLSDTNPGPDTQLPSGPAQNPGIDFDIEEFFSASNIQTQTEESELSTMTTEPVLESLDIETQTDFLLADTSAQSYGCRGNSNFLGLEMFDTQTQTDLNFFLDSSPHLPLGSILKHSSFSVSTDSSDTETQTEGVSTAKNIPALESKVQLNSTETQTMSSGFETLGSLFFTSNETQTAMDDFLLADLAWNTMESQFSSVETQTSAEPHTVSNF
Turning to B3, in the data set with LC8, the “Number of monomeric LC8 in complex” value is 22, the “Number of monomeric binding partners in complex” value is listed as 2 and the LC8 binding sites is recorded as 11.

B4: SWA: known LC8 binding partner, literature (protein, UniProt P40688 1-548, looked up)
Protein swallow: MSLQDESFPTDELFDQLNNLSSSGARNTWFAEHHKPAVFERDTAPFLEICYADPDFDADGDVANKSAKTCVSDPVGRDQEDEDDYDEDVDGDDHKLGCEKAPLGSGRSSKAVSYQDIHSAYTKRRFQHVTSKVGQYIAEIQAQDQKRRNVKFAGFQRVNSMPESLTPTLQQVYVHDGDFKVDKNCQTHSNSDSNYNSNSNNSSSSFDRLLAENESLQQKINSLRVEAKRLQGFNEYVQERLDRKTDDFVKMKCNFETLRTELSECQQKLRRQQDNSQHHFMYHIRSATSAKATQTDFLVDTIPASGNVLVTPHPLGDLTYNSSKGSIELALLSVAPSARVAQNPVQVQRAIHPQSLDFSSVSTEADGSGSGEHRVETSSRALVRRTPAPNNSETSQPSSNDSAIEVEAHEEERPSSRRQWEQQGELISPRQWGQHEGMYYFDKRNNRVIEVMGFNISQGRNQSHDTIHNQSINDSQTRLLVHSMSMSHLEAHDHFRSKRTTLGSRMLRFLGPCVRCRNGDPLNRSNVTYKDGLPAMPEEEFVDQRNQR
In the case of B4, in the data set with LC8, the “Number of monomeric LC8 in complex” value is listed as 2, the “Number of monomeric binding partners in complex” value is listed as 2 and the LC8 binding sites is listed as 1.
